Values joined by “and” are separate entries in the source; they are usually repeats but may differ in a detail not shown here. Equal entries are not always repeated.
Key:
[1] = pH of tenecteplase dilutions; format: physicochemical; conditions: for observed pH: over 24 hours of storage at ambient conditions
Protocol: (§1) Tenecteplase (TNKASE™ variant of t-PA), obtained from Genentech, Inc. (e.g., U.S. Pat. No. 5,612,029) (50 mg/vial) was reconstituted to 5 mg/mL with 10 mL of SWFI. Using a 3 & 5 cc syringe and 22 G needle, 1, 2, and 5 mL of normal saline (NS) was removed from separate IV bags (500 mL NS, Baxter), in duplicates. The same volume was replaced with the reconstituted drug product to give a final tenecteplase concentration inside the bags of 0.01, 0.02, and 0.05 mg/mL. The bags were then mixed gently by inversions. A 10-mL aliquot of the diluted tenecteplase solution was sampled via the IV port with a 10-cc syringe and dispensed into two 5-cc clean clear glass vials (6 mL in one and the remaining in the other). The IV bags containing the diluted tenecteplase were placed on a bench top under normal fluorescent light at ambient conditions for 24 hours. Additional aliquots (10 mL each) from these IV bags were sampled after 8 and 24 hours of storage.
The pH determination was performed using a RADIOMETER PHM 93™ pH meter and a microelectrode (MI-410™, Microelectrode, Inc.). The pH meter was standardized with pH 4.01 and 7.00 buffer standards prior to measurement at ambient conditions.

[2] = biological target: T1, in vitro clot consisting of plasminogen and fibrin (Homo sapiens, UniProt P00747+P02671+P02675+P02679); test: Clot lysis assay of tenecteplase; format: biochemical; conditions: for overall percent specific activity of the recovered protein: over 24 hours at ambient conditions; for Clot lysis (+cent): after centrifugation; for Clot lysis (−cent): before centrifugation
T1 construct: Plasminogen kept frozen at or below −60° C. until use; purchased Biocell (fibrinogen); Calbiochem (thrombin)
Source text: The assay works as follows: Reagents are substances added to a solution of another substance to participate in a chemical reaction. In this case, contents of boat 1 will react with contents of boat 2 to form a standardized clot. Thrombin (boat 2), when mixed with plasminogen and fibrinogen (boat 1), causes the conversion of fibrinogen to fibrin and forms a standardized in vitro clot consisting of plasminogen and fibrin. A test sample of t-PA is then exposed to the clot. T-PA causes the conversion of plasminogen to plasmin, and plasmin then breaks apart the fibrin strands. As the clot breaks apart, there is a change in the absorbance (light) characteristics. The absorbance is plotted versus time.
In such test, thrombin and fibrinogen are mixed together to produce fibrin; plasminogen and tenecteplase are mixed together to produce plasmin; and together the fibrin and plasmin lyse the clot. The test measures the effectiveness of tenecteplase to act with plasminogen to form plasmin and thus lyse the clot.
as §1
All the aliquots of tenecteplase were subjected to the clot lysis assay described above to determine the in vitro bioactivity of tenecteplase in these aliquots. The samples were diluted to two or three different concentrations within assay range (200-500 ng/mL) with the diluent. Tenecteplase was used as an internal reference. All values obtained were normalized to the tenecteplase reference material. The bioactivity was assayed by clot lysis before and after centrifugation.

[3] = Tenecteplase concentration by RP-HPLC before and after centrifugation; format: physicochemical; conditions: for Conc. (+cent) by RP-HPLC: after centrifugation; for Conc. (−cent) by RP-HPLC: before centrifugation
Protocol: as §1
The clot lysis activity and protein concentrations (determined by RP-HPLC) were performed before and after centrifugation of each sample aliquot. This was to ensure that any precipitation that was not visible to the naked eye was removed prior to assay for more accurate interpretation of the results. […] At 0.01 mg/mL, the percent change in concentration was 57% immediately after dilution and increased to 71% after 24 hours. […] This observation can be explained, without being limited to any one theory, by a more pronounced protein adsorption at a lower concentration that usually occurs instantly and saturates with time.

[4] = targeted conc. 0.01 mg/mL in 0.9% NaCl IV bag, T = 0
[5] = targeted conc. 0.01 mg/mL in 0.9% NaCl IV bag, T = 24 hours ambient
[6] = targeted conc. 0.02 mg/mL in 0.9% NaCl IV bag, T = 0
[7] = targeted conc. 0.02 mg/mL in 0.9% NaCl IV bag, T = 24 hours ambient
[8] = targeted conc. 0.05 mg/mL in 0.9% NaCl IV bag, T = 0
[9] = targeted conc. 0.05 mg/mL in 0.9% NaCl IV bag, T = 24 hours ambient
[10] = targeted conc. 0.01 mg/mL in 0.9% NaCl IV bag, T = 8 hours ambient
[11] = targeted conc. 0.02 mg/mL in 0.9% NaCl IV bag, T = 8 hours ambient
[12] = targeted conc. 0.05 mg/mL in 0.9% NaCl IV bag, T = 8 hours ambient

T1 sequence (P00747 20-810 limits assumed): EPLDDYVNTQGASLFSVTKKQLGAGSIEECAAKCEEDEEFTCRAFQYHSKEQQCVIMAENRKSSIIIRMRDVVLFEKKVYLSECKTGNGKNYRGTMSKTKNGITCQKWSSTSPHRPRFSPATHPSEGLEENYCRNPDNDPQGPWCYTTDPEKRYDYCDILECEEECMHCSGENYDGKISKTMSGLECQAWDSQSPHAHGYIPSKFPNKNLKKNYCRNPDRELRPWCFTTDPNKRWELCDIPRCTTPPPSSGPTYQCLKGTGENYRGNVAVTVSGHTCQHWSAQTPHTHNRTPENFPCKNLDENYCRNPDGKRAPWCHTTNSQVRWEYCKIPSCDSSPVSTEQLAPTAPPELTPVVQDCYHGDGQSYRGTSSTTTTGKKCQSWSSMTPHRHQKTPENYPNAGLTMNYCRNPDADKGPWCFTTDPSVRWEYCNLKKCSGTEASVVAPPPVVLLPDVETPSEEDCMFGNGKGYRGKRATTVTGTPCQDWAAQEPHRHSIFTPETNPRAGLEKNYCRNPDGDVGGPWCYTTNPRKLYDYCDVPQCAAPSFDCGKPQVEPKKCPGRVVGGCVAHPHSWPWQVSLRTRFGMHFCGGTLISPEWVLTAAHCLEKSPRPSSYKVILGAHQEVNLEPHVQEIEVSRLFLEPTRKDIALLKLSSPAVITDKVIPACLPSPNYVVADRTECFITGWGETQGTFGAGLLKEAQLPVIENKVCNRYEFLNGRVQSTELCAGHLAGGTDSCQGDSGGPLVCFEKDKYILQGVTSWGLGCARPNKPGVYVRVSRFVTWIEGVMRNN
T1 sequence (P02671 36-629 limits assumed): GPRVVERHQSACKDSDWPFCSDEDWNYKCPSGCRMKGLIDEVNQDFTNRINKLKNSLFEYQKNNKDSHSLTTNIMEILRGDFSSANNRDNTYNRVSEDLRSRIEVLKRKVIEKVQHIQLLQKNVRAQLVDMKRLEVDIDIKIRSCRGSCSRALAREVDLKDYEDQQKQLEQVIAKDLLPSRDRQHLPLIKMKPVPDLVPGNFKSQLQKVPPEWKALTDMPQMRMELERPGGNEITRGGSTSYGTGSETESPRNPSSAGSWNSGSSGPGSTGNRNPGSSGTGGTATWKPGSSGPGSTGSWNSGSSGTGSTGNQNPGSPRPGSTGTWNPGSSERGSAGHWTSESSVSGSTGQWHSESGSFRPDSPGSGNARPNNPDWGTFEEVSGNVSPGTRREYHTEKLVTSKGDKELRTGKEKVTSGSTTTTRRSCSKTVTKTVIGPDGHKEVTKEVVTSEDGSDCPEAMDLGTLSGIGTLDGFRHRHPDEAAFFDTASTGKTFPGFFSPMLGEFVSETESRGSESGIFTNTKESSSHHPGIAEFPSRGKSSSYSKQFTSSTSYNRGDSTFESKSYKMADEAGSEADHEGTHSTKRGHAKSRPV
T1 sequence (P02675 45-491 limits assumed): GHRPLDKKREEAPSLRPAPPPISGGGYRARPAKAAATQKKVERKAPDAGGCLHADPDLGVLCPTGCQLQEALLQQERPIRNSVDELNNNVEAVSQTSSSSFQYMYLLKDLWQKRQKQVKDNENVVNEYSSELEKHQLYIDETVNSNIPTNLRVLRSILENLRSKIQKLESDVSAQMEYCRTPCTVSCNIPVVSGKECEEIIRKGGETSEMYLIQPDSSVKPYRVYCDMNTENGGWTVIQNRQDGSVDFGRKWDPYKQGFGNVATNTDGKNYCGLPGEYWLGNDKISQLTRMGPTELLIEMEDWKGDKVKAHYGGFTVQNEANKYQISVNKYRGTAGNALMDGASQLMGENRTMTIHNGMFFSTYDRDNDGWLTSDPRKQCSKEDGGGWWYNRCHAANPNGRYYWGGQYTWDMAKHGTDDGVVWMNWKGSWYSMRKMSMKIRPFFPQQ
T1 sequence (P02679 27-437 isoform P02679-2 limits assumed): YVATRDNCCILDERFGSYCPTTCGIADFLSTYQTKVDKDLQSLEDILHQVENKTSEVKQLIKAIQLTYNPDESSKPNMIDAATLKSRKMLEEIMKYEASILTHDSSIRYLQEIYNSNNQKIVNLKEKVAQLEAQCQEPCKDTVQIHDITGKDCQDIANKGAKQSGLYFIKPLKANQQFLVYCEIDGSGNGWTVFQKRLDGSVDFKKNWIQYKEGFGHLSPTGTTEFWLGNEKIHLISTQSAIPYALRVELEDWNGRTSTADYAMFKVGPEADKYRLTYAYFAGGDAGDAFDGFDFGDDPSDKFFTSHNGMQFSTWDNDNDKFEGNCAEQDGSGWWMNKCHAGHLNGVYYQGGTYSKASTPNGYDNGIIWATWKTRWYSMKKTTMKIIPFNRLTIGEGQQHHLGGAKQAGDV

B1: Tenecteplase: a t-PA variant designated T103N, N117Q, K296A, H297A,R298A,R299A available as TNKASE™ brand from Genentech, Inc.; diluted in 0.9% NaCl (protein, UniProt P00750 36-562, looked up, variant T103N N117Q K296A H297A R298A R299A)
Tissue-type plasminogen …: SYQVICRDEKTQMIYQQHQSWLRPVLRSNRVEYCWCNSGRAQCHSVPVKSCSEPRCFNGGTCQQALYFSDFVCQCPEGFAGKCCEIDTRATCYEDQGISYRGNWSTAESGAECTNWQSSALAQKPYSGRRPDAIRLGLGNHNYCRNPDRDSKPWCYVFKAGKYSSEFCSTPACSEGNSDCYFGNGSAYRGTHSLTESGASCLPWNSMILIGKVYTAQNPSAQALGLGKHNYCRNPDGDAKPWCHVLKNRRLTWEYCDVPSCSTCGLRQYSQPQFRIKGGLFADIASHPWQAAIFAAAAASPGERFLCGGILISSCWILSAAHCFQERFPPHHLTVILGRTYRVVPGEEEQKFEVEKYIVHKEFDDDTYDNDIALLQLKSDSSRCAQESSVVRTVCLPPADLQLPDWTECELSGYGKHEALSPFYSERLKEAHVRLYPSSRCTSQHLLNRTVTDNMLCAGDTRSGGPQANLHDACQGDSGGPLVCLNDGRMTLVGIISWGLGCGQKDVPGVYTKVTNYLDWIRDNMRP
- observed pH ([1]; 0.01 mg/mL in NS): 6.7-6.8
- observed pH ([1]; 0.02 mg/mL in NS): 6.8-6.9
- observed pH ([1]; 0.05 mg/mL in NS): 7.1-7.2
- pH [1, 4]: 6.70 and 6.73
- pH [1, 5]: 6.77 and 6.71
- pH [1, 6]: 6.93 and 6.83
- pH [1, 7]: 6.86 and 6.90
- pH [1, 8]: 7.12 and 7.15
- pH [1, 9]: 7.10 and 7.07
- overall percent specific activity of the recovered protein ([2]; 0.01 mg/mL): ≥ 100%
- overall percent specific activity of the recovered protein ([2]; 0.02 mg/mL): ≥ 92%
- overall percent specific activity of the recovered protein ([2]; 0.05 mg/mL): ≥ 80%
- Lytic activity in clot lysis effectiveness test ([2]; diluted down to 0.01 mg/mL in normal saline): lytically active
- Lytic activity after storage ([2]; diluted to 0.01, 0.02, and 0.05% mg/mL in 0.9% NaCl IV bags (500 mL), after 24 hours of storage at ambient conditions): lytically active
- % Specific Activity [2, 4]: 100%
- Clot lysis (+cent) [2, 4]: 0.004 mg/mL
- Clot lysis (−cent) [2, 4]: 0.006 mg/mL
- % Specific Activity [2, 10]: 125% and 120%
- Clot lysis (+cent) [2, 10]: 0.005 mg/mL and 0.006 mg/mL
- Clot lysis (−cent) [2, 10]: 0.007 mg/mL and 0.008 mg/mL
- % Specific Activity [2, 5]: 100% and 120%
- Clot lysis (+cent) [2, 5]: 0.005 mg/mL and 0.006 mg/mL
- Clot lysis (−cent) [2, 5]: 0.007 mg/mL
- % Specific Activity [2, 6]: 92%
- Clot lysis (+cent) [2, 6]: 0.012 mg/mL
- Clot lysis (−cent) [2, 6]: 0.015 mg/mL
- % Specific Activity [2, 11]: 92%
- Clot lysis (+cent) [2, 11]: 0.012 mg/mL
- Clot lysis (−cent) [2, 11]: 0.015 mg/mL and 0.013 mg/mL
- % Specific Activity [2, 7]: 100% and 92%
- Clot lysis (+cent) [2, 7]: 0.013 mg/mL and 0.012 mg/mL
- Clot lysis (−cent) [2, 7]: 0.015 mg/mL and 0.016 mg/mL
- % Specific Activity [2, 8]: 82% and 78%
- Clot lysis (+cent) [2, 8]: 0.037 mg/mL and 0.036 mg/mL
- Clot lysis (−cent) [2, 8]: 0.040 mg/mL and 0.041 mg/mL
- % Specific Activity [2, 12]: 76% and 82%
- Clot lysis (+cent) [2, 12]: 0.034 mg/mL and 0.037 mg/mL
- Clot lysis (−cent) [2, 12]: 0.039 mg/mL
- % Specific Activity [2, 9]: 93% and 91%
- Clot lysis (+cent) [2, 9]: 0.040 mg/mL
- Clot lysis (−cent) [2, 9]: 0.043 mg/mL
- % Change in Conc. (±cent) [3, 4]: 57%
- Conc. (+cent) by RP-HPLC [3, 4]: 4000 ng/mL
- Conc. (−cent) by RP-HPLC [3, 4]: 7000 ng/mL
- % Change in Conc. (±cent) [3, 10]: 57% and 63%
- Conc. (+cent) by RP-HPLC [3, 10]: 4000 ng/mL and 5000 ng/mL
- Conc. (−cent) by RP-HPLC [3, 10]: 7000 ng/mL and 8000 ng/mL
- % Change in Conc. (±cent) [3, 5]: 71%
- Conc. (+cent) by RP-HPLC [3, 5]: 5000 ng/mL
- Conc. (−cent) by RP-HPLC [3, 5]: 7000 ng/mL
- % Change in Conc. (±cent) [3, 6]: 76%
- Conc. (+cent) by RP-HPLC [3, 6]: 13000 ng/mL
- Conc. (−cent) by RP-HPLC [3, 6]: 17000 ng/mL
- % Change in Conc. (±cent) [3, 11]: 81%
- Conc. (+cent) by RP-HPLC [3, 11]: 13000 ng/mL
- Conc. (−cent) by RP-HPLC [3, 11]: 16000 ng/mL
- % Change in Conc. (±cent) [3, 7]: 81%
- Conc. (+cent) by RP-HPLC [3, 7]: 13000 ng/mL
- Conc. (−cent) by RP-HPLC [3, 7]: 16000 ng/mL
- % Change in Conc. (±cent) [3, 8]: 94% and 98%
- Conc. (+cent) by RP-HPLC [3, 8]: 45000 ng/mL and 46000 ng/mL
- Conc. (−cent) by RP-HPLC [3, 8]: 48000 ng/mL and 47000 ng/mL
- % Change in Conc. (±cent) [3, 12]: 96%
- Conc. (+cent) by RP-HPLC [3, 12]: 45000 ng/mL
- Conc. (−cent) by RP-HPLC [3, 12]: 47000 ng/mL
- % Change in Conc. (±cent) [3, 9]: 90% and 96%
- Conc. (+cent) by RP-HPLC [3, 9]: 43000 ng/mL and 44000 ng/mL
- Conc. (−cent) by RP-HPLC [3, 9]: 48000 ng/mL and 46000 ng/mL
